Experimental data taken from patent publication US20050031645, “Vaccine compositions” (Advanced Microbial Solutions Corporation, published 2005).

Target: T1, DtxR (Corynebacterium diphtheriae, UniProt H2I233 SEQ:1-226)
T1 sequence: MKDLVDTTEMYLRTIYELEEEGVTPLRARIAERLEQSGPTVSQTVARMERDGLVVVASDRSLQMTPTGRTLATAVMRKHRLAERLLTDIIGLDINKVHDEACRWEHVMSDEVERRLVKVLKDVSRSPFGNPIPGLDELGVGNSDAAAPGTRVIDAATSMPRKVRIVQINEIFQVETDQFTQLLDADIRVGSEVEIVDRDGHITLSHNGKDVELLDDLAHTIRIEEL
Test: EMSA; competed by unlabeled tox DNA, not by nonspecific DNA; 10 mM Tris-OAc pH 7.4, 50 mM KCl, 1 mM EDTA, calf thymus DNA
Details: chain copies: 2 (inferred); label: 32P end

B1: toxO (tox operator) 100 bp fragment (dsDNA)
DNA 1: ATAATTAGGATAGCTTTACCTAATTAT
DNA 2: ATAATTAGGTAAAGCTATCCTAATTAT
B1: binds.
